Assay results reported in paper PMC9482650, “Quantitative fragmentomics allow affinity mapping of interactomes” (Nature Communications, 2022).

T1: DFNB31_2, Q9P202
T1 sequence (Q9P202 274-371, limits assumed, looked up): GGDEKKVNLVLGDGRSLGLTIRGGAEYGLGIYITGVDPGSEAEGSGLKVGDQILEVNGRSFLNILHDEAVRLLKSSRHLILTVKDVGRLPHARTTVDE

T2: PARD3B_1, Q8TEW8
T2 sequence (Q8TEW8 196-299, limits assumed, looked up): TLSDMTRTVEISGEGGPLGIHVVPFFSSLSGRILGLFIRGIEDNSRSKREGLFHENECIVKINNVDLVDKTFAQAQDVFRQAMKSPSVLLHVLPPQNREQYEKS

T3: DLG3_1, Q92796
T3 sequence (Q92796 125-227, limits assumed, looked up): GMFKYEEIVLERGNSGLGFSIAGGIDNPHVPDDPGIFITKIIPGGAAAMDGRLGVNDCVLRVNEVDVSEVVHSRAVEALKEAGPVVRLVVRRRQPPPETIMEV

T4: LIN7C, Q9NUP9
T4 sequence (Q9NUP9 88-185, limits assumed, looked up): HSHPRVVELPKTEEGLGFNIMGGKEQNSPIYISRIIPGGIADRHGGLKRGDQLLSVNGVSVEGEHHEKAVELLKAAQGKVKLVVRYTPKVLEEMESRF

T5: HTRA3, P83110
T5 sequence (P83110 354-453, limits assumed, looked up): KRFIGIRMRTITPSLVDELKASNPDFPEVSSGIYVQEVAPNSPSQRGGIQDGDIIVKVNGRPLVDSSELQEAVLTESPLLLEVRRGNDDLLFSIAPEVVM

T6: LNX2_3, Q8N448
T6 sequence (Q8N448 463-564, limits assumed, looked up): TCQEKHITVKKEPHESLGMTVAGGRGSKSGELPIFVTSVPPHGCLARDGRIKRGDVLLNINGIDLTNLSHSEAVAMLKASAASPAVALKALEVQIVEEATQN

T7: GRIP1_7, Q9Y3R0
T7 sequence (Q9Y3R0 999-1096, limits assumed, looked up): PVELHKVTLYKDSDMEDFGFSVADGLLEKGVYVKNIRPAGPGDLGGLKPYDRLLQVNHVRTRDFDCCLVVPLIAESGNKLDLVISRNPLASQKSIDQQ

T8: SNTA1, Q13424
T8 sequence (Q13424 82-180, limits assumed, looked up): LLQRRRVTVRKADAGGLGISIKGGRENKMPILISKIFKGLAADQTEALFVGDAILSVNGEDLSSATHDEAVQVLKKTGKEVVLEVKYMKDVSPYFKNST

T9: TX1BP3, O14907
T9 sequence (O14907 10-122, limits assumed, looked up): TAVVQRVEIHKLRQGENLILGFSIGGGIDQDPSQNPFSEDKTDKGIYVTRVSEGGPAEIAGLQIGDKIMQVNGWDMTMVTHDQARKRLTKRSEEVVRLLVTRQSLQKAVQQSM

T10: ARHGEF11, O15085
T10 sequence (O15085 42-136, limits assumed, looked up): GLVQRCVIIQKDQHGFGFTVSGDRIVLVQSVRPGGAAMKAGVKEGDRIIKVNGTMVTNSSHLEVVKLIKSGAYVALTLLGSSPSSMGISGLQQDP

T11: MPDZ_5, O75970
T11 sequence (O75970 695-796, limits assumed, looked up): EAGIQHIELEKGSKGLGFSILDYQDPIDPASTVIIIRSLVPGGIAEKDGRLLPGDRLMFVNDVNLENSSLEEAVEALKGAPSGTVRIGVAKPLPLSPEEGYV

T12: PDZD2_2, O15018
T12 sequence (O15018 329-429, limits assumed, looked up): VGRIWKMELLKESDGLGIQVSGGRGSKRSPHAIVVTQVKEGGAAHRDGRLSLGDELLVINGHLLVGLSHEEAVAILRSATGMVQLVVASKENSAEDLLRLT


Key:
Assay in all cases: holdup assay
Set-up in all cases: key: below the threshold = too weak to quantify, mostly under pKd 3.1 to 4
Details in all cases: plain residues with an end cap or a label only (N-terminal biotin on a linker: ado-ado)
GOPC, Q9HD26 = target: GOPC, Q9HD26
TJP1_2, Q07157 = target: TJP1_2, Q07157
TJP1_2, Q07157, sequence (Q07157 181-274): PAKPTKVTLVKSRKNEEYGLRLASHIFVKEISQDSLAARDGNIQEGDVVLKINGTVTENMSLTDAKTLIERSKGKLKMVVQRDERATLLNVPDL

DFNB31_2, Q9P202 = target: T1, DFNB31_2, Q9P202
PARD3B_1, Q8TEW8 = target: T2, PARD3B_1, Q8TEW8
DLG3_1, Q92796 = target: T3, DLG3_1, Q92796
FRMPD2_2, Q68DX3 = target: FRMPD2_2, Q68DX3
FRMPD2_2, Q68DX3, sequence (Q68DX3 944-1038): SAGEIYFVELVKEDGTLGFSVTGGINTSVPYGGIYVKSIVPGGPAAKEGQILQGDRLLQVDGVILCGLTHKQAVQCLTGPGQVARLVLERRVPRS

LIN7C, Q9NUP9 = target: T4, LIN7C, Q9NUP9
HTRA3, P83110 = target: T5, HTRA3, P83110
LNX2_3, Q8N448 = target: T6, LNX2_3, Q8N448
Inadl_3, Q8NI35 = target: Inadl_3, Q8NI35
Inadl_3, Q8NI35, sequence (Q8NI35 359-469): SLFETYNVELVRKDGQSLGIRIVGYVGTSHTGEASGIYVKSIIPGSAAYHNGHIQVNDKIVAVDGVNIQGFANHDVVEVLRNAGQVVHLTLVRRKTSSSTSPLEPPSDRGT

NHERF2_2, Q15599 = target: NHERF2_2, Q15599
NHERF2_2, Q15599, sequence (Q15599 142-238): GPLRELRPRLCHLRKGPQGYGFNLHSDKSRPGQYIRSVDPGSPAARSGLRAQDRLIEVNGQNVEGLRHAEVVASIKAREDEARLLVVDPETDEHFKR

SCRIB_2, Q14160 = target: SCRIB_2, Q14160
SCRIB_2, Q14160, sequence (Q14160 857-960): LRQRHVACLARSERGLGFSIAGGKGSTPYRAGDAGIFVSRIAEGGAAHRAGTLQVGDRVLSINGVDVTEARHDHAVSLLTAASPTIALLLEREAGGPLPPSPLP

LAP2, Q96RT1 = target: LAP2, Q96RT1
LAP2, Q96RT1, sequence (Q96RT1 other isoform, or with tags, fused parts or gaps): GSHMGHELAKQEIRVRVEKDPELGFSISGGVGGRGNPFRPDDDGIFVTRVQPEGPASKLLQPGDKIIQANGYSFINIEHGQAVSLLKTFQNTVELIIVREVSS

GRIP1_7, Q9Y3R0 = target: T7, GRIP1_7, Q9Y3R0
SNTA1, Q13424 = target: T8, SNTA1, Q13424
GORASP2, Q9H8Y8 = target: GORASP2, Q9H8Y8
TX1BP3, O14907 = target: T9, TX1BP3, O14907
Inadl_5, Q8NI35 = target: Inadl_5, Q8NI35
Inadl_5, Q8NI35, sequence (Q8NI35 673-780): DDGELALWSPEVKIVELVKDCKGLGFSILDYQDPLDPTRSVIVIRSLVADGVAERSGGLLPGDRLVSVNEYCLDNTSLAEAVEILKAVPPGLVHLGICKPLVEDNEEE

Inadl_1, Q8NI35 = target: Inadl_1, Q8NI35
Inadl_1, Q8NI35, sequence (Q8NI35 113-229): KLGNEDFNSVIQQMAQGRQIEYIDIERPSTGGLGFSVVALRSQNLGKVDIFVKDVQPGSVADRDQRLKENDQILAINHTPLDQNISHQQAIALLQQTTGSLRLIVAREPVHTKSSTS

FRMPD4, Q14CM0 = target: FRMPD4, Q14CM0
FRMPD4, Q14CM0, sequence (Q14CM0 67-160): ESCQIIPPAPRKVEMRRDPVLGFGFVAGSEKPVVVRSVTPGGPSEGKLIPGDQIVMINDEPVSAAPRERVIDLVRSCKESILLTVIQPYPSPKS

GRID2IP_2, A4D2P6 = target: GRID2IP_2, A4D2P6
GRID2IP_2, A4D2P6, sequence (A4D2P6 272-370): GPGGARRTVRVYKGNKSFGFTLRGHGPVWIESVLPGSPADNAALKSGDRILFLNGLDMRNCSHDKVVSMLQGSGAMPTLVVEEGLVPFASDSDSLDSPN

ARHGEF11, O15085 = target: T10, ARHGEF11, O15085
MPDZ_5, O75970 = target: T11, MPDZ_5, O75970
PDZD2_2, O15018 = target: T12, PDZD2_2, O15018

pKd (GOPC, Q9HD26)	pKd (TJP1_2, Q07157)	pKd (DFNB31_2, Q9P202)	pKd (PARD3B_1, Q8TEW8)	pKd (DLG3_1, Q92796)	pKd (FRMPD2_2, Q68DX3)	pKd (LIN7C, Q9NUP9)	pKd (HTRA3, P83110)	pKd (LNX2_3, Q8N448)	pKd (Inadl_3, Q8NI35)	pKd (NHERF2_2, Q15599)	pKd (SCRIB_2, Q14160)	pKd (LAP2, Q96RT1)	pKd (GRIP1_7, Q9Y3R0)	pKd (SNTA1, Q13424)	pKd (GORASP2, Q9H8Y8)	pKd (TX1BP3, O14907)	pKd (Inadl_5, Q8NI35)	pKd (Inadl_1, Q8NI35)	pKd (FRMPD4, Q14CM0)	Binder	further results
3.95	below the threshold	below the threshold	below the threshold	3.64	4.21	below the threshold	3.52	below the threshold	below the threshold	3.94	4.44	3.98	below the threshold	4.16	3.75	4.47	below the threshold	below the threshold	3.65	TKEIPNCTSV [SORCS3, Q9UPU3]	pKd (GRID2IP_2, A4D2P6): 4.29; pKd (ARHGEF11, O15085): 4.82; pKd (MPDZ_5, O75970): below the threshold; pKd (PDZD2_2, O15018): 4.72
below the threshold	below the threshold	below the threshold	below the threshold	3.6	below the threshold	4.05	below the threshold	below the threshold	3.84	below the threshold	4.73	3.84	below the threshold	5.71	below the threshold	4.51	below the threshold	below the threshold	below the threshold	DYSNLRETDI [ADRA1D, P25100]	pKd (GRID2IP_2, A4D2P6): below the threshold; pKd (ARHGEF11, O15085): below the threshold; pKd (MPDZ_5, O75970): below the threshold; pKd (PDZD2_2, O15018): 4.18
3.57	below the threshold	3.52	below the threshold	3.82	below the threshold	4.13	below the threshold	below the threshold	below the threshold	3.55	3.69	3.63	below the threshold	3.88	below the threshold	3.91	3.58	below the threshold	3.61	QLKSGRDSTV [TMEM178A, Q8NBL3]	pKd (GRID2IP_2, A4D2P6): 3.54; pKd (ARHGEF11, O15085): 4.11; pKd (MPDZ_5, O75970): 3.56; pKd (PDZD2_2, O15018): 4.32
